The results in this text go back to publication PMC4961225, “The Molecular Basis for Ubiquitin and Ubiquitin-like Specificities in Bacterial Effector Proteases” (Molecular Cell, 2016).

The target in the assay is T1, ubiquitin (uniformly 15N-labeled Ub) (UniProt P0CG48 1-76).
T1 construct: also called 15N-Ub
The experiment in a line: NMR titration; uniformly 15N-labeled Ub observed (1H,15N-HSQC TROSY; 80 μM Ub in Figure 6), unlabeled partner added; 25°C. Particulars: both partners purified.

B1: SseL (aa 24–340) (domain or fragment)
chain: VSDEALTLLFSAVENGDQNCIDLLCNLALRNDDLGHRVEKFLFDLFSGKRTGSSDIDKKINQACLVLHQIANNDITKDNTEWKKLHAPSRLLYMAGSATTDLSKKIGIAHKIMGDQFAQTDQEQVGVENLWCGARMLSSDELAAATQGLVQESPLLSVNYPIGLIHPTTKENILSTQLLEKIAQSGLSHNEVFLVNTGDHWLLCLFYKLAEKIKCLIFNTYYDLNENTKQEIIEAAKIAGISESDEVNFIEMNLQNNVPNGCGLFCYHTIQLLSNAGQNDPATTLREFAENFLTLSVEEQALFNTQTRRQIYEYSLQ
In the case of B1, the binding result is listed as “binds”.
